Measured values from the DeepSol protein solubility set.

Test: soluble on expression in E. coli; label from the status in PepcDB or PDB records

Sequence	soluble on expression in E. coli
MRNTDRKRAQGVSRLDRRDSRMRRVGTYGGRKLIEYDQERWNILAEKRERAKEVMESLLSFGIESVVYGSVARGDVNEKSDVDIFIPEVIPSYKVEVALDGFEVLEKRIVQATPNYAIKGEFVLSDNTTVSFPLVRMREREMDFYRFGGCVDYRGLMEKRRVPGVDKRLVLIIPTGKGHREIPLTDIHPSSVARMLGVSIDIVTERIRVLTRRREVGRTGIFLCETIPSTDCFEQALKEIASRNPAVRRRLD	not soluble
MEVTVMPAAAPVQKQQGLNQIVINKVQKMIEGKQQGVMATITRLLEEGKIAQDFIAPIGVNLRNEDRHPVITFQAEEQVQMNMPEGNFNLHGNAISQISEKMGIPAKYLRELSAGDAWQKQLCATILNEHSGWTGRTRVLIRAVGTEIRGVLSDSYRRLNSVDILTAFIREAANNGAVVSDAYMNDTKVWCETILPTPVEIPTRKNGTVIIFAGARFSTSDFGNGSVDMRSFLLNGACLNGMVRESVMRQIHLGGRLPDTLALSQRTYELDTKTTVSAVKDLTKGLYSKNTIMQKAIEIQGASEIDVDFDKELKSLVQRGALLKNEGREVEKLLMNNNPDDGITGGATLWKLAQGITAFAREQEPERSRELHEISGQLMNRVKNN	not soluble
MLPRTMAADEGHVPGRFDAVIVGGGHNGLVAAAYLARAGRSVLVLERLGNTGGAAVSTRPFAGVDARLSRYSYLVSLLPRKIVRDLGLDFRVRGRTVSSYTPAERHGRPTGLLVGGGERRTREAFGRLTGSAREYESWQRFYGMTGRVARQVFPTLTEPLPSRDELRRRVDDEDAWRVLFEEPIGAAIEENFTDDLVRGVVLTDALIGTFADAHDPSLRQNRCFLYHIIGGGTGAWDVPVGGMGALTDALAAAARDAGAVLATGHEAVRIETDGRSAEVTYRDADGEGTVSARHVLVNAAPQELARLTGDSPPVPAEGAQLKVNMLLKRLPALRDTAVDPREAFAGTFHIAEGYEQLAAAHAQAAAGSLPEAPPSEIYCHSLTDPTILGPDLVEQGYQTLTLFGLHTPARLFERDNEGVREELLKSTLAQLDAHLAEPLVDCLATDAEGRPCIEAKSPLDLERDLRLPGGNIFHRDLAFPYAQEGTGRWGVETAHANVLLCGAGAVRGGGVSGVPGHNAAMAALEDVGERALGLEHHHHHH	not soluble
MLTVTDYYKELLNFCARTLKDRDAAADLVQEAYTRFLVAQRSGAAIADPRALLFRTTRNLLIDQHRRAEVRMHLSLDTLLEEEQPLAPRHLQPEEVLAFSRYAQALYAAIESLPRRCREAFILNRFDGLSHQEVAEKMGISRNMVAQHIIRGVLVCKACDDRFHGRVVLASKPAE	not soluble
MSLRGGETLEYDPDVLDENVEIEVGDVVEIKKFEKTEVYVSGYVSRPGVYEISPKENVTLEKLLSMAGGIKGTLEEVDSIVVTRDGSVITLSPNNLDFSVKPGDVVNVKEFVPKKAYVLGYVRNPGLYTFGKNEAFTLRNLIAKAGGFVDEGQVVSVKVAGKEYSEGHHHHHH	soluble
MGTKLPRKLEQKMQIVGEQIKLARLRRNLSIAQIAERATCSPLTVGRIEKGSPTVAIGIYARVLYALQLEDDLLHLAGADELGRRLQDLSLINRRRASKKG	not soluble
MAHKKSNRQLIDACRQNFLSHLRLREWRDVHSQLLTVVREHGWRLNEAEATYEQIHLALLTGLLGNLGMKADDDPHYLGARGIKFYLWPGSALAKKAGRWVMAAELVETSRLYARCLAKIEPEWIEKVGAHLLKKSLSEPLEHHHHHH	soluble
QVQLQQSGSELMKPGASVQISCKATGYTFSDYWIEWVKQRPGHGLEWIGDILCGTGRTRYNEKLKAMATFTADTSSNTAFMQLSSLTSEDSAVYYCARSASYGDYADYWGHGTTLTVSSAKTTPPSVYPLAPGCGDTTGSSVTLGCLVKGYFPESVTVTWNSGSLSSSVHTFPALLQSGLYTMSSSVTVPSSTWPSQTVTCSVAHPASSTTVDKKLEPS	soluble
MLVAERQQKIVEIVNMRSSIRVSELSDIFSVTEETIRRDLEKLEKEHKLSRSHGGAVSIQQKESEIHFSEREITNVIEKKAIAHEAAKYVKSGDRIILDASTTAWYMAKILPDIELTVITNSMKAAIELSNKENISVISTGGILLEKSLSFAGPLAERSLETYHVNKTFLSCKGFDVHNGMSDSNEWQALLKKRMIERSDQTILMADSSKWGNREFSHIASLQDVSRLITDSGLDPASVKALEDKKVKVTAVPLSKRGLEHHHHHH	soluble
MGSDKIHHHHHHMSDSPLIAFPRGCITGTFIRRVKRFSVEMETAGAGAPERVWIHSNNSGSMLGLLRAGAPVLASPAANPARKLKWTQELAGLDGMWVGVNTQTPNRLLEAAFHAGRLPWAAGYTMFRREARCGASRLDARMDAPQDSGLPPLWVECKNVTMVEDDVAAFPDAATERGQKHLREMMEIVRQGQRAAMFYLVQRADGHCFGPADYVDPVYAGLFYEAAAAGVEMYPHRALVSEHGIDLGPLLPVVPPPGV	not soluble
SWQTYVDTNLVGTGAVTQAAILGLDGNTWATSAGFAVTPAQGQTLASAFNNADPIRASGFDLAGVHYVTLRADDRSIYGKKGSAGVITVKTSKSILVGVYNEKIQPGTAANVVEKLADYLIGQGF	soluble
MYSPESMNSNISSPSPPSSSSLNAPSLADAPEVRSDDGEAETSEPSTSVTAVPMEIVSQASTSAPVNQLLASGIDMSSVIKNNAVLQALLASASAGGFGDNAGLTMSKLLTAALANGSTAVAKRDAGSPRTDIPKKTRLKVFSNGFFMTFDKLSSCQKKYFWRCEYKNTCKARMHTDIVTEKILTFIHEHNHSAPIDEEVRLYGLDPTNIERNRVYIVGNVADPNQRRKIRKQVADREAAAKRLVQQQEEEQQKQQSASSIVAARAAYAQAMQNGSIPTSSGVASFLQSTSATAPMTSHSMLLAQMPFLNNIKTEMSNMVKNEQFTPERYTQHMSPNLPLQTATIAPLIIPTENYDSPSYRQPAIKRKATDLTNEEHDLRRDPMFQPTFELARKLRKLWKGEPNRYPRTTTTPTHHFEFFLSKNDGTDEHLYVPMRINLRDEAHLKEALQDFCGQQCIGMLLFGISPKISVMFNQPMLNNWDNNQFFLLDISNPSRWRLMYVDDQAV	not soluble
MSSFVLDFQEIEKTQLSLVGGKGLNLGALSNMQGIQVPEGFCVTTAGYEKAIEQNEELQALLQQLTKLKREERVRIGEISKKIRENIMAVQIPSDVVEAVAHYLSRFGNEHAYAVRSSATAEDLPYASFAGQQDTYLNIIGENAILQHVRKCWASLFTDRAVMYRMQNGFEHNQVSICVVVQKMVFPQASGILFTADPITSNRKVLSIDASFGLGEALVSGLVSADNYKVKEGEIIDKMIATKKLAIYALKEGGTETKQNDPVQQKIQTLSDQQILQLVQIGRQIEAYFGCPQDIEWCLVDHTFYIVQSRPITTLYPIPEENDEGNHVYISVGHQQMMTDAMKPLGLSFFLLTTNAPMRKAGGRLFVDATQQLVLPASRDYLINTLGKSDPLVRDALTTIIERDDFITLLPDEEKEKSASKSKPPVSSQPEIENDPAIVTELIRNSEASLEELKQNMQLKSGVDVFDFILEDIQQLKKVLFNPQSIAVIMAGMNASTWINEKMEQWLGEKNAADMLSQSVQNNITSEMGLALMDVADAIRPYPEVITYLQHVEDDSFLDELVQYKGGEKARDTIVAFLNKYGMRCSGEIDITKTRWSEKPTTIIPMILNNIRDFEAGASKQKFEKGLQEALNKEEELLDRLQHLPKGKQKVEETKRMIRNIRNFIGYREYPKYGMINRYFIYKQALLKEAEQLVQSGVICEVDDIYYLTFEELHEVVRTNKLDYELIQKQKNDYKLYEKLTPPRVMTSDGEIITGKYKRENLPADAIVGLPVSSGVVEGRARVILNMEEANLEEGDILVTAFTDPGWTPLFVSIKGLVTEVGGLMTHGAVIAREYGLPAVVGVENATKRIKDGQRIRVHGTEGYIEML	not soluble
MGSDKIHHHHHHMIIQSKLIRAALVCAAKNDVRYYLNGLHITPKHIEATNGSVALRMAHGIRTKKNIIVQFEGGVPAKAETTELIFSKEPIAVHRDQFQRRLSITGIKLVDGCFPDLDRIIPKKFDRCTHPVLQAGYLSYPEKMFGRERKFIPVQLRPSGDGQAVRIQFDSIINSMYGNPEFVVMPCRDHGDFNVAQEHPE	not soluble
GPGSMTYRYDYRPPNGGVEGSTVLFEPVAREHRATFSCGGGYGRNVMPEIPRPMVLPLVDYLDSFDKRFIEDWDEITTVQMVKLATLLNYEELLNLASAKLAVYLSEKSIEGLRAFLGVENDFKAEEEAELRKEYGRMSEEK	soluble
MSLVMSMANKREPAPGWPIVSGEYVVGNPESCVGVVTLGSHGLEQACIDAGAAIAGPCHTENLGIEKVVANYISNPNIRFMILCGSEVQGHITGQCFKALWENGIGDDGGIIGAKGAIPFLENVNKEAVERFRRQIVEVVDLIDCEDIGKITQAIKECLSKDPGAIDEDPFIIELEGGKGGGEEEEGVIKPITPEMAIIESRMRLIGNEMCYNGLLAKWQAGYYNGKEGHHHHHH	not soluble
MTSTPEFLKQLDYEQLKYCRELCDNRIRAIEAEEKKMAWAVTDGGINYGWFRTEDYMKAVECLVATAAERWEESDKADPSGRGWLDLSIRGSRLPVSEYEALFADGQWG	not soluble
MRHCGWLLGLLSLFSLATHASDWQEIKNEAKGQTVWFNAWGGDTAINRYLDWVSGEMKTHYAINLKIVRLADAADAVKRIQTEVAAGRKTGGSVDLLWVNGENFRTLKEANLLQTGWAETLPNWRYVDTQLPVREDFSVPTEGAESPWGGAQLTFIARRDVTLQPPQTPQALLEFAKANPGTVTYPRPPDFTGTAFLEQLLIMLTPDPTALKEAPDDATFARVTAPLWQYLDALHPYLWREGKDFPPSPARMDALLKANTLRLSLTFNPAHAQQKIASGDLPASSYSFGFREGMIGNVHFVTIPANANASAAAKVVANFLLSPDAQLRKADPAVWGDPSVLDPQKLPDGQRESLQSRMPQDLPPVLAEPHAGWVNALEQEWLHRYSTH	not soluble
MDQIFNKVGSYWLGQKANKQFDSVGNDLNSVSTSIEGGTKWLVNKIKGKMQKPLPELLKEYDLPIGIFPGDATNYEFDEETKKLTVLIPSICEVGYKDSSVLKFTTTVTGHLEKGKLTDVEGIKTKVMIWVKVTSISTDASKVYFTAGMKKSRSRDAYEVQRNGLRVDKF	soluble
GSSSSLPLYNQQVGDCCIIRVSLDVDNGNMYKSILVTSQDKAPTVIRKAMDKHNLDEDEPEDYELLQIISEDHKLKIPENANVFYAMNSAANYDFILKKR	soluble
MIVFYDSWCPMCTAVAEHTKKLDKKGKMKFVSFRNEDVVEKYELSQELQSKMEQRLYIFKNNKWYDGIQSIDVLAKAVPSYWFAVPFIKLSIVLGFGSKVYDYIANNRKLVPVGHCRGGVCEIPTKK	not soluble
MDVLGALKYFRKKKKIAQKDVLPKKGKQTYRRIEIGEAKLSYEDLMTALQSLGITFNEFFFMVSDTRIMASSEVKHQIECCQMGLNNTSEKKNLIHYFYQLERNPHKNALEMSIYTDIKLTFSNDWEEIPEFDETDRMVILALISSKSYYTYYDYQMVTNPAALFSENEVLQILEQMFPVKDAELRDTQTLNVAYGFYLNIITGELYKKNYAKAREYLALVSVTTIPAEIYYIHFNLRYLKNLTYYLYTGKMRYYKEVIAVIDMIESFGDARLAEGMKKEMLQLTAGRTFNLEKGQFPLNIVTEK	not soluble
MSLKQNQNSDESIDENMSVDNTETCMVDTVKATAIFWIDKAEAKHCKDSGLRTIKAKVFIHENGKVDFLSFTKKQSSGVEKYILHHLDKFQISKRMLEGGYIQTGEQFVQLRCMREKLQAMQEGHHHHHH	soluble
